According to US20240190935A1 (EAST CAROLINA UNIVERSITY, published 2024):

T1: human sCD25(C213T) (aa1-240 of NP_000408 with C213T, C-terminal 8-histidine) (human, UniProt P01589 22-240)
T1 construct: range 1-240; Secreted from stably transfected HEK293F cells and purified on Ni-NTA; the inserted alanine shifts positions in the construct by one; No signal peptide cleavage site is stated; also called hCD25-C213T
T1 sequence: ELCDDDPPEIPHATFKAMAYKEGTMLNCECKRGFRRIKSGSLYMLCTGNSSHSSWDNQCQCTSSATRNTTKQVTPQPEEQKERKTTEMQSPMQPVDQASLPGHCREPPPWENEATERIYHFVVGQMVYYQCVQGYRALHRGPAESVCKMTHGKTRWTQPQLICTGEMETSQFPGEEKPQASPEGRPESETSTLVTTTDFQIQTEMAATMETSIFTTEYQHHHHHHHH

T2: human truncated-sCD25 (aa1-212 of NP_000408, C-terminal 8-histidine) (human, UniProt P01589 22-212)
T2 construct: range 1-212; Secreted from stably transfected HEK293F cells and purified on Ni-NTA; No signal peptide cleavage site is stated; also called hCD25-trunc
T2 sequence: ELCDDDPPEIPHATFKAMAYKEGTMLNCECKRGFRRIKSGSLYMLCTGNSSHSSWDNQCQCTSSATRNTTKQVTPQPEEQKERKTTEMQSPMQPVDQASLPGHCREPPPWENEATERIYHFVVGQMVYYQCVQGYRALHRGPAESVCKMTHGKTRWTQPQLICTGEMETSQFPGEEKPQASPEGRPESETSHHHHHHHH

B1: mouse sCD25 (murine soluble CD25, aa1-208 of NP_032393, C-terminal 8-histidine) (receptor)
chain: ELCLYDPPEVPNATFKALSYKNGTILNCECKRGFRRLKELVYMRCLGNSWSSNCQCTSNSHDKSRKQVTAQLEHQKEQQTTTDMQKPTQSMHQENLTGHCREPPPWKHEDSKRIYHFVEGQSVHYECIPGYKALQRGPAISICKMKCGKTGWTQPQLTCVDEREHHRFLASEESQGSRNSSPESETSHHHHHHHH
notes: range 1-208; Secreted from stably transfected HEK293F cells and purified on Ni-NTA; The construct is defined as aa1-208, signal peptide included; also called murine sCD25; mCD25

Tests used:
[1] = molecular target: T3, anti-mouse CD25-BV421 mAb (clone PC61); experiment: Flow cytometry competition: mouse sCD25 (1-1000 nM) pre-incubated with BV421-PC61 for 1 h at 4 °C, then HEK cells expressing full-length mouse CD25 added; blocked: binding of the mAb to CD25 on the cells
T3 construct: Commercial fluorochrome-conjugated mAb (Biolegend), mouse-specific; also called BV421-PC61; anti-mouse CD25 mAb
Method: Then, HEKs expressing full-length transmembrane mouse CD25 or human CD25 were added to each tube and incubated for 1 hour at 4° C. and subsequently washed with HBSS two times prior to analyzing surface bound anti-CD25 mAbs by flow cytometry.

[2] = molecular target: B1; experiment: SPR (Biacore T200), steady-state fit; mouse IL-2 (1000-3.9 nM) injected over immobilized mouse sCD25; mean ± SD of three injection series
Method: (§1) SPR experiments were performed on a Biacore T200 instrument at 25° C. using a flowrate of 30 μL min-1 in a running buffer of HBS-T (10 mM HEPES (pH 7.3), 140 mM NaCl, 0.005% Tween 20). Proteins were immobilized on a CMD200 biosensor chip (Xantec Bioanalytics) using ethyl-3-(3-dimethylaminopropyl)-carbodiimide (EDC)/N-hydroxysuccinimide/(NHS) coupling chemistry. […] A reference surface was created by EDC/NHS activation followed by a seven-minute injection of 1 M ethanolamine (pH 8.5). […] Surfaces were regenerated to baseline by injection of 2M NaCl for three minutes. Each injection series was performed in triplicate. The resulting reference-corrected sensorgrams were blank subtracted using an injection of HBS-T and fit to a steady-state model of binding using T200 Evaluation software. KD values and Rₘₐₓ values are reported as the mean±standard deviation (SD). All figures were prepared using Graphpad Prism 8.0.

[3] = molecular target: T1, human sCD25(C213T) (aa1-240 of …; experiment: SPR (Biacore T200), steady-state fit; mouse IL-2 (1000-3.9 nM) injected over immobilized human sCD25(C213T); mean ± SD of three injection series [cont'd.) B]
Method: as §1

[4] = molecular target: T2, human truncated-sCD25 (aa1-212 of …); experiment: SPR (Biacore T200), steady-state fit; mouse IL-2 (1000-3.9 nM) injected over immobilized human truncated-sCD25; mean ± SD of three injection series [cont'd.) C]
Method: as §1

IC50 (read off the curve) [1] [nM] | Kd [2] [nM] | Kd [3] [nM] | Kd [4] [nM] | Binder
~5 | – | – | – | B1
– | 250 | 430 | 740 | recombinant murine IL-2 (accession number NP_032392) (ligand, mouse, UniProt P04351 21-169, looked up, also called mouse IL-2; mIL-2) APTSSSTSSSTAEAQQQQQQQQQQQQHLEQLLMDLQELLSRMENYRNLKLPRMLTFKFYLPKQATELKDLQCLEDELGPLRHVLDLTQSKSFQLEDAENFISNIRVTVVKLKGSDNTFECQFDDESATVVDFLRRWIAFCQSIISTSPQ
